T1: whole human PRG-3 with a C-terminal V5 tag, inducibly expressed on PRG-3/293T-Rex cells (human, UniProt Q8TBJ4 1-325)
T1 construct: Membrane protein with 6 transmembrane regions; also called PRG-3/293 cells; PRG3+/293 cells; not shown: V5 tag inserted at the C-terminus
T1 sequence: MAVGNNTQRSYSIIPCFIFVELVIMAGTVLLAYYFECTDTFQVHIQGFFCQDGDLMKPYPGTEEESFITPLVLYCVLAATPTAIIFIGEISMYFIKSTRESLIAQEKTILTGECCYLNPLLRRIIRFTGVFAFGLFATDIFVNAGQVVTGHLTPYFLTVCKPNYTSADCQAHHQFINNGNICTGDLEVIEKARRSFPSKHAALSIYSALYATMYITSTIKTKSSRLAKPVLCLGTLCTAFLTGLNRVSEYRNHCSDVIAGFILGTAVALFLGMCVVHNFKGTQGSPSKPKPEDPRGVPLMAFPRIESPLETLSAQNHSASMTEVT

T2: human PRG-3 (without tag) on cells (human, UniProt Q8TBJ4 1-325)
T2 construct: also called PRG-3 protein; PRG-3/BaF3
T2 sequence: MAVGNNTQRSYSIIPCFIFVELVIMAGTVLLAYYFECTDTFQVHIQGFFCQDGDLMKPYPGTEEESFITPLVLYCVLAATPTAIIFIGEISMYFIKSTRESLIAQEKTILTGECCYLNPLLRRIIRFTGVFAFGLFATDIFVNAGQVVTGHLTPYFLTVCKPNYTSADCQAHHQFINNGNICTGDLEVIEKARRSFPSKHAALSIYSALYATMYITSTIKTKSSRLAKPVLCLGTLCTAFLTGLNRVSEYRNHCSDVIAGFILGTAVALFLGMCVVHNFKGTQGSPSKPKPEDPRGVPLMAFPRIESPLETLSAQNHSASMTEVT


How the values were obtained:
[1] = target: T1, whole human PRG-3 with a C-terminal V5 …; test: flow cytometry, hybridoma supernatant on PRG-3-induced against non-induced 293 cells
Description: The cell line expressing human PRG-3 suspended in FACS buffer (2% FBS/PBS) was diluted to 1×10⁶ cells/mL using FACS buffer, and aliquoted at 50 μL/well into a Falcon 353910 round-bottom 96-well plate. Hybridoma culture supernatant diluted to a suitable concentration was added to the wells containing the cells and reacted for 60 min on ice. Next, the cells were rinsed once with FACS buffer. Goat F(ab′)₂ fragment anti-mouse IgG (H+L)-FITC (Beckman Coulter) was added to the wells containing the cells as a secondary antibody, and reacted for 30 min on ice. The supernatant was removed by centrifugation after the reaction, and the cells suspended in 100 μL of FACS buffer were subjected to flow cytometry. A FACS Calibur (Becton Dickinson) was used for the flow cytometry. A gate for the viable cell population was established with a forward scatter-side scatter dot blot, an FL1 histogram was made of the cells contained in the population, and binding activity thereof was evaluated.

[2] = target: T2, human PRG-3 (without tag) on cells; test: flow cytometry, mixture of the two antibodies on Ba/F3 cells transfected with pMCN-PRG-3
Description: A Ba/F3 cell transformant line was established by gene transfer of the pMCN-PRG-3 expression vector constructed in example 2 into Ba/F3 cells, which is a murine pro B cell line, by electroporation under conditions of 0.33 kV and 950 μF. The Ba/F3 cells are IL-3 dependent cells, and they were cultured in RPMI-1640/10% FBS/penicillin-streptomycin containing 1 ng/mL IL-3. The cells that underwent gene transfer were selected by RPMI-1640/10% FBS/penicillin-streptomycin containing IL-3 and 500 μg/mL Geneticin® (Invitrogen). Cells expressing PRG-3 from the Geneticin®-resistant lines were selected by flow cytometry. […] Lines O-A5, O-D3, and O-F5 were established as Ba/F3 cell lines expressing PRG-3 (FIG. 6). Additionally, line O-F5 was cloned by the limiting dilution method and the OF5-G8 line with a high level of expression was also obtained.

Row | binding result [1] | binding result [2] | Binder
1 | binds | binds | anti-PRG-3 monoclonal antibody 4F1 (antibody, mouse IgG2b, kappa, V domains shown, also called MR4F1) VH: QVQLQQPGAELVKPGASVKLSCKASGYTFTSYWMNWVKQRPGRGLEWIGKIHPSDSETHYNQKFKSKATLTVDKSSSTAYIQLNSLTSEDSAVYYCTRGYNNYLDYWGQGTTLTVSS VL: DIVLTQSPASLAVSLGQSVTISCRASESVEYYGTSLMQWYQQKPGQPPKLLIYGASNVESGVPARFSGSGSWTDFSLNIHPVEEDDIAIYFCQQSRKVPSTFGGGTKLEIKR
2 | binds | binds | anti-PRG-3 monoclonal antibody 4F12 (antibody, mouse IgG2a, kappa, V domains shown, Tested as hybridoma culture supernatant and as protein G purified antibody; also called MR4F12) VH: QVQLQQPGAELVKPGASVKLSCKASGYTFTSYWMNWVKQRPGRGLEWIGKIHPSDSETHYNQKFKSKATLTVDKSSSTAYIQLSSLTSEDSAVYYCARGYSNYLDYWGQGTTLTVSS VL: DIVLTQSPASLAVSLGQRVTISCRASESVEYYGTSLMQWYQQKPGQPPKLLIYGASNVESGVPARFSGSGSGTDFSLNIHPVEEDDIAMYFCQQSRKVPSTFGGGTKLEIKR
